Residue numbers refer to the chain shown, from its start.

Settings in all cases: protein: recombinant; tags: His; chain copies: 2; label: 32P end label
The target of data set [1] is T1, HIS-Yna2p(1-180) (Hansenula polymorpha (syn. Pichia …, UniProt Q9HFM7 1-180)).
T1 sequence: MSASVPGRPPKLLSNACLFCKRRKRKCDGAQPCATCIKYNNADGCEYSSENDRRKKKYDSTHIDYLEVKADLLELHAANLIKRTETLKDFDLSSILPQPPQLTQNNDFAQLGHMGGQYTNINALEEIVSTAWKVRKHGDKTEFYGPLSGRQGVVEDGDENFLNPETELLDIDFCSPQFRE
The data set is described as follows: EMSA; poly(dIdC); no detectable complex; EMSA: 75 ng protein in 10 ul KCl 1 mM, spermidine 80 mM (so in the source), 0.1 mg/ml poly(dIdC), on ice then 30 min at room temperature with probe; 6% PAGE, 50% glycerol, 0.5x TBE; pH not stated.

Data set [2] addresses T2, HIS-Yna1p(1-185) (Hansenula polymorpha (syn. Pichia …, UniProt O93984 1-185)).
T2 sequence: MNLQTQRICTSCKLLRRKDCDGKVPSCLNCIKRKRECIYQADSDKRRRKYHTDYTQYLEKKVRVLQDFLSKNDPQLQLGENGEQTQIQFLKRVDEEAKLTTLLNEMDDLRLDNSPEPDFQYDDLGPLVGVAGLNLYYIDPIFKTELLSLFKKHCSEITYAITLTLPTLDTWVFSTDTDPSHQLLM
The data set is described as follows: EMSA; poly(dIdC); complex abrogated by 1x-2x unlabelled probe; less stable than with probe 1; EMSA: 75 ng protein in 10 ul KCl 1 mM, spermidine 80 mM (so in the source), 0.1 mg/ml poly(dIdC), on ice then 30 min at room temperature with probe; 6% PAGE, 50% glycerol, 0.5x TBE; pH not stated.

Data set [3] has as its target T2, HIS-Yna1p(1-185). Put plainly: EMSA; poly(dIdC); binding disrupted; EMSA: 75 ng protein in 10 ul KCl 1 mM, spermidine 80 mM (so in the source), 0.1 mg/ml poly(dIdC), on ice then 30 min at room temperature with probe; 6% PAGE, 50% glycerol, 0.5x TBE; pH not stated.
Data set [4] deals with T2, HIS-Yna1p(1-185). The data set is described as follows: EMSA; poly(dIdC); complex formation disrupted; EMSA: 75 ng protein in 10 ul KCl 1 mM, spermidine 80 mM (so in the source), 0.1 mg/ml poly(dIdC), on ice then 30 min at room temperature with probe; 6% PAGE, 50% glycerol, 0.5x TBE; pH not stated.
Data set [5] addresses T2, HIS-Yna1p(1-185). The data set is described as follows: EMSA; poly(dIdC); complex diminished by 1x-2x unlabelled probe; EMSA: 75 ng protein in 10 ul KCl 1 mM, spermidine 80 mM (so in the source), 0.1 mg/ml poly(dIdC), on ice then 30 min at room temperature with probe; 6% PAGE, 50% glycerol, 0.5x TBE; pH not stated.
For data set [6], the target named is T1, HIS-Yna2p(1-180). The data set is described as follows: EMSA; poly(dIdC); EMSA: 75 ng protein in 10 ul KCl 1 mM, spermidine 80 mM (so in the source), 0.1 mg/ml poly(dIdC), on ice then 30 min at room temperature with probe; 6% PAGE, 50% glycerol, 0.5x TBE; pH not stated.

B1: YNT1 probe 2 (dsDNA)
DNA 1: GGCTAGCATCCCGCTCATCGGAGAATATTCTGC
DNA 2: GCAGAATATTCTCCGATGAGCGGGATGCTAGCC
On to B1, for which the results for the binding result with HIS-Yna2p(1-180) [1] and in the data set with HIS-Yna1p(1-185) [2] were “no binding” and “binds”, respectively.

B2: YNT1 probe 2 m2 (dsDNA)
DNA 1: B1 DNA 1 with C19A, G20T, G21T
DNA 2: B1 DNA 2 with C13A, C14A, G15T
For the molecule B2, the binding result with HIS-Yna1p(1-185) [3] is recorded as “no binding”.

B3: YNT1 probe 2 m1 (dsDNA)
DNA 1: B1 DNA 1 with C11A, C12A, G13T
DNA 2: B1 DNA 2 with C21A, G22T, G23T
As for B3, the binding result in the data set with HIS-Yna1p(1-185) [4] is given as “no binding”.

B4: YNT1 probe 1 (dsDNA)
DNA 1: CCCGCTCATCGGAGAATATTCTGCTCAAAATTAAGGATGCCCAT
DNA 2: ATGGGCATCCTTAATTTTGAGCAGAATATTCTCCGATGAGCGGG
Turning to B4, the binding result in the data set with HIS-Yna1p(1-185) [5] and with HIS-Yna2p(1-180) [6] was “binds” in each case.

Values taken from article PMC4559421, “Interaction of Yna1 and Yna2 Is Required for Nuclear Accumulation and Transcriptional Activation of the Nitrate Assimilation Pathway in the Yeast Hansenula polymorpha”.
